Results from US20240117030A1 (Pfizer, published 2024).
Substitutions are numbered along the chain they refer to. Where two headings read alike, the source gives them in different places. One block for each binder: values may come before it.

Legend:
Assay in all cases: cell-based or functional assay
human IL-13 [1] = target: T1, human IL-13 (human, UniProt P35225 35-146)
human IL-33 mm2 Cys = target: T2, human IL-33 mm2 Cys (human, UniProt O95760 112-270, limits assumed)
T2 sequence (looked up): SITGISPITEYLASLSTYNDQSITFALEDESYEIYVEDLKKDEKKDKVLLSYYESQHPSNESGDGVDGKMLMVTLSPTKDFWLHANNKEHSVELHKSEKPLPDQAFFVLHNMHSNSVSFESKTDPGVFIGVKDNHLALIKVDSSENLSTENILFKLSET

[2] = target: recombinant human TSLP (glycosylated long form) (human, UniProt Q969D9 29-159)
human IL-13 [3] = target: T1, human IL-13; remark: listed apart in the source
recombinant human IL-13 = recombinant human IL-13 (human, UniProt P35225 35-146)
Sequence of recombinant human IL-13 (P35225 35-146 limits assumed): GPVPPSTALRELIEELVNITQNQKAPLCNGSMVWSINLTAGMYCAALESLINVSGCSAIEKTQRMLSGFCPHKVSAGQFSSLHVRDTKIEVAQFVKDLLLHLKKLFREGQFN

recombinant human IL-33 = target: T3, recombinant human IL-33 (human, UniProt O95760 112-270, limits assumed)
T3 sequence (looked up): T2 sequence (looked up) with S97C, S116C, S121C, S148C

recombinant human IL-4 = target: T4, recombinant human IL-4 (human, UniProt P05112 25-153)
T4 sequence (looked up): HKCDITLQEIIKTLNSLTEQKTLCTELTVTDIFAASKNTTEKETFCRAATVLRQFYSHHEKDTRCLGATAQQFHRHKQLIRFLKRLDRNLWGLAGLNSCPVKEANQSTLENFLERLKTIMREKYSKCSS

T1 sequence (P35225 35-146 limits assumed, form in doubt): as the sequence (P35225 35-146 limits assumed) above

B1: IL13-1306 (antibody, mouse IgG1, V domains shown)
VH: EVKLVESGGDLVKPGGSLKLSCAASGFTFSSYAMSWVRQSPDKRLEWVASISSGDTTYYPDSVKGRFTISRDNARNILYLQMTSLRSEDTAMYYCARLDGYYFGFPYWGQGTLVTVSA
VL: DTVLTQSPASLAVSLGQRATISCKASESVDHSGSSLMHWYQQKPGQSPKLLIYRASNLESGIPARFSGSGSRTDFTLTINPVEADDVATYYCQQSNEDPWTFGGGTKLEIK
pSTAT6 IC50 [pM] (human IL-13 [1]): 290 pM

B2: IL33-0217 (antibody, human IgG1, kappa, V domains shown)
VH: EVQLVESGGGLVQPGGSLRLSCAASGFTFSSYWMYWVRQAPGKGLEWVAAITPNAGEDYYPESVKGRFTISRDNAKNSLYLQMNSLRAEDTAVYYCARGHYYYTSYSLGYWGQGTLVTVSS
VL: DIQMTQSPSSLSASVGDRVTITCRASQNINKHLDWYQQKPGKAPKLLIYFTNNLQTGVPSRFSGSGSGTDFTLTISSLQPEDFATYYCFQYNQGWTFGGGTKVEIKR
IC50 [pM] versus human IL-33 mm2 Cys (HEK-Blue SEAP) (human IL-33 mm2 Cys): 158 pM

B3: IL33-0219 (antibody, human IgG1, kappa, V domains shown)
VH: B2 VH
VL: B2 VL with N30Q
IC50 [pM] versus human IL-33 mm2 Cys (HEK-Blue SEAP) (human IL-33 mm2 Cys): 142 pM

B4: IL33-0224 (antibody, human IgG1, V domains shown)
VH: B2 VH
VL: DIQMTQSPSSLSASVGDRVTITCRASQPISKHLDWYQQKPGKAPKLLIYFTNNLQTGVPSRFSGSGSGTDFTLTISSLQPEDFATYYCFQYNQGWTFGGGTKVEIK
IC50 [pM] versus human IL-33 mm2 Cys (HEK-Blue SEAP) (human IL-33 mm2 Cys): 115 pM

B5: IL33-0220 (antibody, human IgG1, kappa, V domains shown)
VH: B2 VH
VL: B2 VL with N30Y
IC50 [pM] versus human IL-33 mm2 Cys (HEK-Blue SEAP) (human IL-33 mm2 Cys): 176 pM

B10: IL13-1307 (antibody, IgG1, V domains shown)
VH: EVQLVESGGGLVQPGGSLRLSCAASGFTFSSYAMSWVRQAPGKGLEWVASISSGDTTYYPDSVKGRFTISRDNAKNSLYLQMNSLRAEDTAVYYCARLDGYYFGFPYWGQGTLVTVSS
VL: DIQMTQSPSSLSASVGDRVTITCKASESVDHSGSSLMHWYQQKPGKAPKLLIYRASNLESGVPSRFSGSGSGTDFTLTISSLQPEDFATYYCQQSNEDPWTFGGGTKVEIK
CD23 IC50 [pM] (human IL-13 [1]): 214 pM
pSTAT6 IC50 [pM] (human IL-13 [1]): 225 pM
CD23: Fold bioactivity relative to IL13-0001 (human IL-13 [3]): 0.03 fold
CD23: Fold bioactivity relative to IL13-1307 (human IL-13 [3]): 1 fold
CD23 IC50 [pM] (human IL-13 [3]): 306 pM
pSTAT6: Fold bioactivity relative to IL13-0001 (human IL-13 [3]): 0.7 fold
pSTAT6: Fold bioactivity relative to IL13-1307 (human IL-13 [3]): 1 fold
pSTAT6 IC50 [pM] (human IL-13 [3]): 140 pM

B12: IL13-1283 (antibody, human IgG1, kappa, V domains shown)
VH: B10 VH with S30I, D55G, T56N, P106A
VL: DIQMTQSPSSLSASVGDRVTITCKASESVDNYGKSLMHWYQQKPGKAPKLLIYRASNLESGVPSRFSGSGSGTDFTLTISSLQPEDFATYYCQQSNEDPWTFGGGTKVEIKR
CD23 IC50 [pM] (human IL-13 [1]): 261 pM
pSTAT6 IC50 [pM] (human IL-13 [1]): 427 pM

B13: IL13433-1270 (other)
heavy: EVQLVESGGGLVQPGGSLRLSCAASGFTFSSYWMYWVRQAPGKGLEWVAAITPNAGEDYYPESVKGRFTISRDNAKNSLYLQMNSLRAEDTAVYYCARGQYYYTKYSLGYWGQGTLVTVSSASTKGPSVFPKAPSSKSTSGGTAALGCLVKDYFPEPVTVSWNSGALTSGVHTFPAVLQSSGLYSLSSSVTVPSSSLGTQTYICNVNHKPSNTKVDKKVEPKSCDKTHTCPPCPAPEAAGAPSVFLFPPKPKDTLMISRTPEVTCVVVDVSHEDPEVKFNWYVDGVEVHNAKTKPREEQYNSTYRVVSVLTVLHQDWLNGKEYKCKVSNKALPAPIEKTISKAKGQPREPQVCTLPPSREEMTKNQVSLWCLVKGFYPSDIAVEWESNGQPENNYKTTPPVLDSDGSFFLYSKLTVDKSRWQQGNVFSCSVLHEALHSHYTQKSLSLSPGK
chain 1: DIQMTQSPSSLSASVGDRVTITCKASESVDHFGWSLVHWYQQKPGKAPKLLIYRASNLESGVPSRFSGSGSGTDFTLTISSLQPEDFATYYCQQSNEDPWTFGGGTKVEIKRTVAAPSVFIFPPSDEQLKSGTASVVCLLNNFYPREAKVQWKVDNALQSGNSQESVTEQDSKDSTYSLSSTLTLSKADYEKHKVYACEVTHQGLSSPVTKSFNRGECGGGGSEVTLRESGPALVKPTQTLTLTCTFSGFSLSNFGEGLSWIRQPPGKGLEWLAHIYWDDDKRYNPSLKSRLTISKDTSRNQVVLTMTNMDPVDTATYYCARRETVFYWYFDVWGQGTTVTVSSASTKGPSVFPEAPSSKSTSGGTAALGCLVKDYFPEPVTVSWNSGALTSGVHTFPAVLQSSGLYSLGSVVTVPSSSLGTQTYICNVNHKPSNTKVDKKVEPKSCDKTHTCPPCPAPEAAGAPSVFLFPPKPKDTLMISRTPEVTCVVVDVSHEDPEVKFNWYVDGVEVHNAKTKPREEQYNSTYRVVSVLTVLHQDWLNGKEYKCKVSNKALPAPIEKTISKAKGQPREPQVYTLPPCREEMTKNQVSLSCAVKGFYPSDIAVEWESNGQPENNYKTTPPVLDSDGSFFLVSKLTVDKSRWQQGNVFSCSVLHEALHSHYTQKSLSLSPGK
light 1: DIQMTQSPSSLSASVGDRVTITCRASQPIHNHLDWYQQKPGKAPKLLIYFGKNLQEGVPSRFSGSGSGTDFTLTISSLQPEDFATYYCFQYKKGWSFGGGTKVEIKRTVAAPSVFIFPPSDEQLKSGTASVSCLLNNFYPREAKVQWKVDNALQSGNSQESVTEQDSKDSTYSLDSTLTLSKADYEKHKVYACEVTHQGLSSPVTKSFNRGEC
light 2: DIQMTQSPSSLSASVGDRVTITCRASQSVDEEGDSYMNWYQQKPGKAPKLLIYAASNLESGVPSRFSGSGSGTDFTLTISSLQPEDFATYYCQQSNKDPPTFGGGTKVEIKRTVAAPSVFIFPPSDEQLKSGTASVSCLLNNFYPREAKVQWKVDNALQSGNSQESVTEQDSKDSTYSLKSTLTLSKADYEKHKVYACEVTHQGLSSPVTKSFNRGEC
chain 2: EVQLVESGGGLVQPGGSLRLSCAASGFTFSSYAMSWVRQAPGKGLEWVASISSGDTTYYPDSVKGRFTISRDNAKNSLYLQMNSLRAEDTAVYYCARNEGYYFGLTLWGQGTLVTVSSASTKGPSVFPLAPSSKSTSGGTAALGCLVKDYFPEPVTVSWNSGALTSGVHTFPAVLQSSGLYSLSSVVTVPSSSLGTQTYICNVNHKPSNTKVDKKVEPKSC
IL-13 Induced CD23 Expression, potency of cytokine neutralization (recombinant human IL-13): 0.00758 nM
IL-33 WT Activation of SEAP Reporter Cells, potency of cytokine neutralization (recombinant human IL-33): 0.012 nM
IL-4 Induced CD23 Expression, potency of cytokine neutralization (recombinant human IL-4): 0.0165 nM

B14: IL13433-1275 (other)
heavy: B13 heavy with K132L, S189V, C353Y
chain 1: B13 chain 1 with E355L, G410S, C581S
light 1: B13 light 1 with S132V, D175S
light 2: B13 light 2 with S137V, K180S
chain 2: B13 chain 2
IL-13 Induced CD23 Expression, potency of cytokine neutralization (recombinant human IL-13): 0.00888 nM
IL-33 WT Activation of SEAP Reporter Cells, potency of cytokine neutralization (recombinant human IL-33): 0.013 nM
IL-4 Induced CD23 Expression, potency of cytokine neutralization (recombinant human IL-4): 0.0149 nM

Results, then the binder that gave them:

a-TSLP TARC bioassay (fold change to TSLP-0001) [2]: 2.5 fold
B6: TSLP-0820 (antibody, human IgG1, lambda, V domains shown)
VH: EMQLVESGGGLVQPGGSLRLSCAASGFTFRTYGMHWVRQAPGKGLEWVAVIWYDGSNKHYADSVKGRFTISRDNAKNSLYLQMNSLRAEDTAVYYCARAPQWYLVHEAFDIWGQGTMVTVSS
VL: SYVLTQPPSVSVAPGQTARITCGGNNLGSKSVHWYQQKPGQAPVLVVYDDSDRPSWIPERFSGSNSGNTATLTISRGEAGDEADYYCQVWDSSSDHVVFGGGTKLTVLG

a-TSLP TARC bioassay (fold change to TSLP-0001) [2]: 6.4 fold
B7: TSLP-2004 (antibody, human IgG1, lambda, V domains shown)
VH: B6 VH
VL: B6 VL with S92K

a-TSLP TARC bioassay (fold change to TSLP-0001) [2]: 7.2 fold
B8: TSLP-2000 (antibody, human IgG1, lambda, V domains shown)
VH: B6 VH
VL: B6 VL with D95K

a-TSLP TARC bioassay (fold change to TSLP-0001) [2]: 5.1 fold
B9: TSLP-2002 (antibody, human IgG1, lambda, V domains shown)
VH: B6 VH
VL: B6 VL with S51K, S93K

IL-13 Induced CD23 Expression, potency of cytokine neutralization (recombinant human IL-13): 0.00913 nM
IL-33 WT Activation of SEAP Reporter Cells, potency of cytokine neutralization (recombinant human IL-33): 0.013 nM
IL-4 Induced CD23 Expression, potency of cytokine neutralization (recombinant human IL-4): 0.0137 nM
B11: IL13433-1279 (other)
VH 1: B10 VH with L98N, D99E, F105L, P106T, Y107L
VL 1: B10 VL with S32F, S34W, M37V
VH 2: EVTLRESGPALVKPTQTLTLTCTFSGFSLSNFGEGLSWIRQPPGKGLEWLAHIYWDDDKRYNPSLKSRLTISKDTSRNQVVLTMTNMDPVDTATYYCARRETVFYWYFDVWGQGTTVTVSS
VL 2: B10 VL with K24R, E27Q, H31E, S32E, S34D, L36Y, H38N, R54A, E97K, W100P
VH 3: B2 VH with H100Q, S105K
VL 3: B4 VL with S30H, K31N, T51G, N52K, T56E, N92K, Q93K, T96S
